Experiment [1] addresses T1, human MET on EBC-1, NCI-H441 and NCI-H358 cells (human, UniProt P08581 25-1390).
T1 construct: whole, on cells; also called Met receptor; c-Met
As to the kind of experiment: saturation radioligand binding (antibody binding capacity) assay with 89Zr-DFO-H4H14639D on EBC-1 cells, 4 C, 45 min, gamma counting; x axis is total antibody dosed, not free. The protocol: (§1) This wash process was repeated two more times, before resuspending cells in 200 μL of cold buffer (10% FBS in PBS, v/v). Of the 200 μL, 180 μL from each well was collected and dispensed into flip-cap tubes, representing the cell-bound antibody. […] A calibration curve was generated from the total antibody dosed samples using counts detected vs total antibody dosed per well, T, based on the dilution series starting from the initial antibody concentration (divided by five because of sampling). The calibration curve was used to convert the bound fraction counts (multiplied by […] because of sampling) to mass (or concentration) of bound antibody, B.
(§2) The radioligand internalization was also assayed at the highest dosed concentration at 4° C. for the 45 minutes. […] Activity of cell pellets, stripping supernatants, and wash supernatants were measured using a gamma counter. The fraction internalized, I, was calculated as the ratio of activity of the cell pellet over sum of the total activity of the cell pellet, stripping supernatant and wash supernatants.
(§3) Because there are multiple binding formats for H4H14639D, the data set was fit by the Hill-Langmuir equation (equation 3). The ABC was then calculated using equation 2. Non-specific binding was determined to be a negligible component for all runs was not considered as part of the analysis. […]

Experiment [2] concerns the target T1, human MET on EBC-1, NCI-H441 and …. As to the kind of experiment: saturation radioligand binding (antibody binding capacity) assay with 89Zr-DFO-H4H14639D on NCI-H441 cells, 4 C, 45 min, gamma counting; x axis is total antibody dosed, not free. On the procedure:
as §1, §2, §3

For experiment [3], the target named is MET ('target' in the SPR assay of Example 2; construct not stated) (UniProt P08581 25-932, limits assumed). As to the kind of experiment: SPR, Biacore 8k. In general terms: Surface plasmon resonance follows binding to a sensor surface in real time, without labels.
MET ('target' in the SPR assay of Example 2; construct not stated), sequence (P08581 25-932 limits assumed): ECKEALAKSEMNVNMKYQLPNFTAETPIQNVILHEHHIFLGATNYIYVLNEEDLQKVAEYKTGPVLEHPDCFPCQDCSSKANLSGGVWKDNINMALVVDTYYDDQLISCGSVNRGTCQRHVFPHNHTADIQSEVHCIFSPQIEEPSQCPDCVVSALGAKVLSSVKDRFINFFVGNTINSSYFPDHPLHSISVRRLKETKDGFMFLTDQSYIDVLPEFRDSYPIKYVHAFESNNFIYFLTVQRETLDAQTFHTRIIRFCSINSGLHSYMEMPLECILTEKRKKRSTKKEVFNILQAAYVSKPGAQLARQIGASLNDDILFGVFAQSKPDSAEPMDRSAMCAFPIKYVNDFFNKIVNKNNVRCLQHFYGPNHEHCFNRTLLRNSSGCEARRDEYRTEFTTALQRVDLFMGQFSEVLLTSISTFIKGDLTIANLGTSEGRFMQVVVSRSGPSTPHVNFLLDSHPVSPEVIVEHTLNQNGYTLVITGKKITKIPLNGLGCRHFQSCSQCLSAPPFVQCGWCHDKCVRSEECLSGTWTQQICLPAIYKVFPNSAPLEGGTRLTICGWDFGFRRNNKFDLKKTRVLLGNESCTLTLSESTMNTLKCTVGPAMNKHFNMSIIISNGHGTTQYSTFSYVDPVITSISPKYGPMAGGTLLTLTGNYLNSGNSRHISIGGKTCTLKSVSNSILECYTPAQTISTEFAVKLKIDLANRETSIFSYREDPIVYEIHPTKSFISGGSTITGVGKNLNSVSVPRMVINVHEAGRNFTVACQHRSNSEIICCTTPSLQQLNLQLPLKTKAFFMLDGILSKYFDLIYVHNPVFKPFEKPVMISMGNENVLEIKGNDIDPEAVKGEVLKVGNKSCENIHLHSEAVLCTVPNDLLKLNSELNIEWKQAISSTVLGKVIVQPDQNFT

Where only a bound is given, the exact number is not on record here.

The values below come from patent US20210077638A1 (Regeneron, published 2021).

T1 sequence (P08581 25-1390): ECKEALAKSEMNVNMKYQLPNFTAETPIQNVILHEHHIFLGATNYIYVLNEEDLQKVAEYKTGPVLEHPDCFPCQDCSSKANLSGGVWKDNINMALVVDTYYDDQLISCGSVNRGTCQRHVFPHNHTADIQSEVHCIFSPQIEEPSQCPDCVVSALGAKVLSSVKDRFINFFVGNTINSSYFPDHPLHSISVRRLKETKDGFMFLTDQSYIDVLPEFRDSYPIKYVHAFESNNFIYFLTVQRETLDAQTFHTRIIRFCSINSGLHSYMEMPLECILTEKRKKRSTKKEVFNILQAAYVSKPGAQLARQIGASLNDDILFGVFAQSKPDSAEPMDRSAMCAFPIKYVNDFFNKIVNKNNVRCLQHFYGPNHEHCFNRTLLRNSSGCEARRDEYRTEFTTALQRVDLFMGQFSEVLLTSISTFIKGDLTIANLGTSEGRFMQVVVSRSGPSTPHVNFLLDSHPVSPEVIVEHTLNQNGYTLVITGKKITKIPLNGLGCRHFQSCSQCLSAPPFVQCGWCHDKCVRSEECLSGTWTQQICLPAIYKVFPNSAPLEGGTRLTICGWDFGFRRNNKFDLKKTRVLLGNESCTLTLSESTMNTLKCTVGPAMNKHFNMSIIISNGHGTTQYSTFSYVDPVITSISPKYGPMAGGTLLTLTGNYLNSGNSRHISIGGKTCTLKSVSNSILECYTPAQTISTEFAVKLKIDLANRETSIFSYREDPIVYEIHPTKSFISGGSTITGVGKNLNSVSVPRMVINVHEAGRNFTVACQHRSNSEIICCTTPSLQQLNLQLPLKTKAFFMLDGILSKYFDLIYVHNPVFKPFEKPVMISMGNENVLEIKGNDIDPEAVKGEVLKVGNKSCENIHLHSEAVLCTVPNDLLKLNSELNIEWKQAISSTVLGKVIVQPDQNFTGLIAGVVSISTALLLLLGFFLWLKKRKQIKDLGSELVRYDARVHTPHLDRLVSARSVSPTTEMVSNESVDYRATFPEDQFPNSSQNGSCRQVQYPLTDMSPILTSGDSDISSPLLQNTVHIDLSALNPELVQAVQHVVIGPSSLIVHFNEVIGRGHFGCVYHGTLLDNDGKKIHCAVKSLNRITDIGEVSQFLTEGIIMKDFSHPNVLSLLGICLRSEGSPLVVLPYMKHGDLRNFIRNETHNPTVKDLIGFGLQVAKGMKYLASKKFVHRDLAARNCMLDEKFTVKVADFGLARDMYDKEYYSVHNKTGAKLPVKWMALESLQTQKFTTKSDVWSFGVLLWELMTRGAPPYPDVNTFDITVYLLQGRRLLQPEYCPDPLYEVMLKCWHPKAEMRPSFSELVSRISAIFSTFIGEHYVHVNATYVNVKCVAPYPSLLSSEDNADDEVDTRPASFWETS

B1: 89Zr-DFO-H4H14639D (bispecific antibody, V domains shown)
VH 1: EVQLVESGGGLVQPGTSLRLSCAASGFTFDDYAMHWVRQAPGKGLEWVSGITWNSYNIDYADSVKGRFTISRDNAKNSLYLQMNSLRAEDTALYYCAKDDDYSNYVYFDYWGQGTLVTVSS
VH 2: EVQLVESGGGLVQPGGSLRLSCAASGFIVTTNYMTWLRQAPGKGLEWVSLIYSSGHTYYADSVKGRFTISRHNSKNTLYLQMDSLRAEDTAVYYCASAFAADVFDIWGQGTMVTVSS
VL: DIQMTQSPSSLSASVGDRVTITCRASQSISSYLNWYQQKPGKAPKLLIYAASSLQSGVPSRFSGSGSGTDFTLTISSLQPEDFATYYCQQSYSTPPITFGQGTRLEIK
modifications: p-SCN-Bn-DFO on primary amines (sites not given), chelating 89Zr
notes: also called DFO-Ab radioimmunoconjugate; 89Zr-DFO-MET x MET bispecific antibody conjugate
In the case of B1, the EC50 (read off the curve) – broadly, the concentration that produces a half-maximal response – is roughly 3 nM in experiment [1] and roughly 2 nM in experiment [2].

B2: DFO-H4H14639D immunoconjugate (DAR 1.26) (bispecific antibody, V domains shown)
VH 1: B1 VH 1
VH 2: B1 VH 2
VL: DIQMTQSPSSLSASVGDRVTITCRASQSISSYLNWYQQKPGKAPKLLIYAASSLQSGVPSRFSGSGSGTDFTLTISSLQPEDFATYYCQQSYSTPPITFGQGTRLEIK
modifications: p-SCN-Bn-DFO on primary amines, sites not stated; average DAR 1.26 per antibody
notes: also called DFO-Ab immunoconjugate; DFO-MET x MET immunoconjugate
Take B2: the “KD relative to the KD of the unconjugated bispecific antibody” value in experiment [3] was no more than 10%.
